Results published in patent publication US20140072613A1 (published 2014).

T1: TAK1(h) (human, UniProt O43318 1-303, limits assumed)
T1 sequence (looked up): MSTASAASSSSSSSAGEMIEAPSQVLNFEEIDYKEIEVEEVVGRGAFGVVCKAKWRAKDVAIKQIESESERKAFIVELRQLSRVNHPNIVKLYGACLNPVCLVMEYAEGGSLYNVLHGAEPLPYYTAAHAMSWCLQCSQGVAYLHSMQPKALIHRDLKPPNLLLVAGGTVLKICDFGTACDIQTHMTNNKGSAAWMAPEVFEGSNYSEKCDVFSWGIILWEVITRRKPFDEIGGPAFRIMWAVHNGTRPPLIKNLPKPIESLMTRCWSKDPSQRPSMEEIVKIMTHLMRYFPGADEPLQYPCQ

T2: MST2(h) (human, UniProt Q13188 1-491)
T2 sequence (looked up): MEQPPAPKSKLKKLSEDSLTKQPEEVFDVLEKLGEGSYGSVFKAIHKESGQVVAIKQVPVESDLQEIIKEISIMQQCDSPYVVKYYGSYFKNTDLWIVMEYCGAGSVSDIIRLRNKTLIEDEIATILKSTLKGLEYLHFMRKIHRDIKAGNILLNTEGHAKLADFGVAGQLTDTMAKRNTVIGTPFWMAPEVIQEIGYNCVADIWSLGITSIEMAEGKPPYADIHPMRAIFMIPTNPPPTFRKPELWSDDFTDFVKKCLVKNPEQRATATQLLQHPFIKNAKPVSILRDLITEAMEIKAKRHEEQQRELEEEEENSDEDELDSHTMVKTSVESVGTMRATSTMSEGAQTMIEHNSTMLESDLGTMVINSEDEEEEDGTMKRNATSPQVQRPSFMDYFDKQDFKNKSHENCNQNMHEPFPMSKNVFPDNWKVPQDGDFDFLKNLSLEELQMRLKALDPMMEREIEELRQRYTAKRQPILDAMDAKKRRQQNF

T3: ULK2(h) (human, UniProt Q8IYT8 1-631, limits assumed)
T3 sequence (looked up): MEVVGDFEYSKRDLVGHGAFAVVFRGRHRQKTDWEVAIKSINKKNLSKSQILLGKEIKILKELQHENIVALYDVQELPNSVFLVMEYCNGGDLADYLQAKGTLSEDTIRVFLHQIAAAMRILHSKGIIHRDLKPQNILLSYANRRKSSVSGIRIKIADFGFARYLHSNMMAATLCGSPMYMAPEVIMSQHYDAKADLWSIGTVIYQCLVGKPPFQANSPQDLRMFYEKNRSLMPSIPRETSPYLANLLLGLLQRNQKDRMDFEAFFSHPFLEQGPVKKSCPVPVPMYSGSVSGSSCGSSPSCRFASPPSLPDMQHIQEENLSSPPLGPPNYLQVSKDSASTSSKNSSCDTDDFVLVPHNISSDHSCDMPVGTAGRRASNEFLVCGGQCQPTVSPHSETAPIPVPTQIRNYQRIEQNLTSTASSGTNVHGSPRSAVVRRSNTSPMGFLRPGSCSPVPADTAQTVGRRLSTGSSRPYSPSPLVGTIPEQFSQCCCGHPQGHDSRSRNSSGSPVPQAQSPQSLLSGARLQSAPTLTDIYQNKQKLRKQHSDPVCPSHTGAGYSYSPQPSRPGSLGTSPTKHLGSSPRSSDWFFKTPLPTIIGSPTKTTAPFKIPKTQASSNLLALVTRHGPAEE

T4: MuSK(h) (human, UniProt O15146 517-869, limits assumed)
T4 sequence (looked up): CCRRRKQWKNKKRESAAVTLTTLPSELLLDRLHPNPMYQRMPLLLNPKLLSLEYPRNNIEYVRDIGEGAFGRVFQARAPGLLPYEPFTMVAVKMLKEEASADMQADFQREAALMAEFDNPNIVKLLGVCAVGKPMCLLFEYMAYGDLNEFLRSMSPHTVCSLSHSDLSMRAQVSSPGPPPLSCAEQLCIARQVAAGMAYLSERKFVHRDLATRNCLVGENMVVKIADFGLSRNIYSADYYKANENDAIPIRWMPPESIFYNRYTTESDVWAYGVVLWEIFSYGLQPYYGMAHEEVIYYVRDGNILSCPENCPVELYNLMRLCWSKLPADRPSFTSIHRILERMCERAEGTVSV

T5: DYRK2(h) (human, UniProt Q92630 1-601, limits assumed)
T5 sequence (looked up): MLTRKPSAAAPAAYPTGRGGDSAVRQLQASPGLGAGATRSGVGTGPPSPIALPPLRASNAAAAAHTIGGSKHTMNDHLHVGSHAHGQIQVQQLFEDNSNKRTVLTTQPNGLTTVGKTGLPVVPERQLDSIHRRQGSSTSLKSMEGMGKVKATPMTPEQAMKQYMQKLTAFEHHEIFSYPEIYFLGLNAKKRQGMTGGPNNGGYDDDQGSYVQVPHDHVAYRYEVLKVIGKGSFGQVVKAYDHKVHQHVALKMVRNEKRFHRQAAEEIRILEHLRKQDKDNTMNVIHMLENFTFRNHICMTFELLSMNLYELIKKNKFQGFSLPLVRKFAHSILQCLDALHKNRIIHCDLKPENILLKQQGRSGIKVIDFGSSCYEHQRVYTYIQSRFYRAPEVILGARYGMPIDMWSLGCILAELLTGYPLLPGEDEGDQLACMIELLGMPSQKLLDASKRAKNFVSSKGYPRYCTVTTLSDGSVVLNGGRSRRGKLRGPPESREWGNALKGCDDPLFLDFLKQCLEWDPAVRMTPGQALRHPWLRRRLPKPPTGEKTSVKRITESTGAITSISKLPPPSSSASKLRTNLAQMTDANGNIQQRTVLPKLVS


Legend:
Experiment in all cases: cell-based or functional assay
FGFR1(h) = FGFR1(h) (human, UniProt P11362 456-765, limits assumed)
TAK1(h) = biological target: T1, TAK1(h)
IR(h) = IR(h) (human, UniProt P06213 1005-1310, limits assumed)
Flt4(h) = Flt4(h) (human, UniProt P35916 800-1363, limits assumed)
JNK3(h) = JNK3(h) (human, UniProt P53779 1-464, limits assumed)
Pyk2 (h) = Pyk2 (h) (human, UniProt Q14289 1-1009, limits assumed)
MST2(h) = biological target: T2, MST2(h)
ULK2(h) = biological target: T3, ULK2(h)
BTK(R28H)(h) = BTK(R28H)(h) (human, UniProt Q06187 1-659)
ROCK-I(h) = ROCK-I(h) (human, UniProt Q13464 17-535, limits assumed)
MuSK(h) = biological target: T4, MuSK(h)
DYRK2(h) = biological target: T5, DYRK2(h)

Sequence of IR(h) (P06213 1005-1310 limits assumed): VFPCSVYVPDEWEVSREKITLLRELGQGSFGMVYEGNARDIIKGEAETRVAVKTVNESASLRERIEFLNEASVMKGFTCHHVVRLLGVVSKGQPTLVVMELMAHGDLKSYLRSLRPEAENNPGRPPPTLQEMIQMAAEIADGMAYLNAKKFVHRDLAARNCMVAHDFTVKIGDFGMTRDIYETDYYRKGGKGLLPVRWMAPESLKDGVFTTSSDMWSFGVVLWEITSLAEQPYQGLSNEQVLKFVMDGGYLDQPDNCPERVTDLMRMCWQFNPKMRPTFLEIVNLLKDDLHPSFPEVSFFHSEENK
Sequence of FGFR1(h) (P11362 456-765 limits assumed): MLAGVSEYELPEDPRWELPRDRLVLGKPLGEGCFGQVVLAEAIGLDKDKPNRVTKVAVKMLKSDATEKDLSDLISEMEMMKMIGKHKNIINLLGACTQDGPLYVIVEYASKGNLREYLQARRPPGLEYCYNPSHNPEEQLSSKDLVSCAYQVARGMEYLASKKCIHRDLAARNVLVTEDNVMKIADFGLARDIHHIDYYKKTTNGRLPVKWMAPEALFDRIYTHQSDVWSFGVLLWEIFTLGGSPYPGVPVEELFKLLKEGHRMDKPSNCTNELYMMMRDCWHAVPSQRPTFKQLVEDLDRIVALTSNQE
Sequence of BTK(R28H)(h) (Q06187 whole entry R28H): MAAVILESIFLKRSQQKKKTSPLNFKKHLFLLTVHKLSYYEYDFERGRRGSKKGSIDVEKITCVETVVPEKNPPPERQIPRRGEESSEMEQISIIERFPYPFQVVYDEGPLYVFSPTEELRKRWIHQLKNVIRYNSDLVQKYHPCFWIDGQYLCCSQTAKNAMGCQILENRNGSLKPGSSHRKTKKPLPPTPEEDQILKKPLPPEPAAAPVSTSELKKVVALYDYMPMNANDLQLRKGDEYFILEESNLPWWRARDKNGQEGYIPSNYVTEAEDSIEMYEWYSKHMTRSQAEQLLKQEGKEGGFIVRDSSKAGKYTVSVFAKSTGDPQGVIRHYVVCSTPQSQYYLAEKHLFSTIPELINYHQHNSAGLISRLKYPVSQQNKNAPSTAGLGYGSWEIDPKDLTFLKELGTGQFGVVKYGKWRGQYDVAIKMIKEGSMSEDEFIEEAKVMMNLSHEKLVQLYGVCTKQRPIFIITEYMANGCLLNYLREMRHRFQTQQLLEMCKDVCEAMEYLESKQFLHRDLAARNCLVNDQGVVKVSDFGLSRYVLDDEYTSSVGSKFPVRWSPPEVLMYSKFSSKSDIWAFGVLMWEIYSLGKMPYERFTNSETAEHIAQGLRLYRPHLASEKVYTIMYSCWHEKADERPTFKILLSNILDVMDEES
Sequence of Flt4(h) (P35916 800-1363 limits assumed): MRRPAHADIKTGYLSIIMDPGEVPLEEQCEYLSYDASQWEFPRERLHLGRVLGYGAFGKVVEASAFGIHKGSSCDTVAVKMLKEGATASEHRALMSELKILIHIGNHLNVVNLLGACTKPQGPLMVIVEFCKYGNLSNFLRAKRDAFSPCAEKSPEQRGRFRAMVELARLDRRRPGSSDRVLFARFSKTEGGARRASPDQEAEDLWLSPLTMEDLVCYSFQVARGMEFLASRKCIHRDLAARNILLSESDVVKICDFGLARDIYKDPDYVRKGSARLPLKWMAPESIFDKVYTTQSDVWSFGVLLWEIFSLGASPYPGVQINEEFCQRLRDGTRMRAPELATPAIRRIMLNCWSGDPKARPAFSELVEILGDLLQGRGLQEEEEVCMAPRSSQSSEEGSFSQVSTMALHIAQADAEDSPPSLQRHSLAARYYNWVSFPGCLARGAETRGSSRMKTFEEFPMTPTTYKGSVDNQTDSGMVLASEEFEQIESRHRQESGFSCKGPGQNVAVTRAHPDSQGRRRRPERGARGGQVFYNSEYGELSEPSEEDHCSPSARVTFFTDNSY
Sequence of Pyk2 (h) (Q14289 whole entry): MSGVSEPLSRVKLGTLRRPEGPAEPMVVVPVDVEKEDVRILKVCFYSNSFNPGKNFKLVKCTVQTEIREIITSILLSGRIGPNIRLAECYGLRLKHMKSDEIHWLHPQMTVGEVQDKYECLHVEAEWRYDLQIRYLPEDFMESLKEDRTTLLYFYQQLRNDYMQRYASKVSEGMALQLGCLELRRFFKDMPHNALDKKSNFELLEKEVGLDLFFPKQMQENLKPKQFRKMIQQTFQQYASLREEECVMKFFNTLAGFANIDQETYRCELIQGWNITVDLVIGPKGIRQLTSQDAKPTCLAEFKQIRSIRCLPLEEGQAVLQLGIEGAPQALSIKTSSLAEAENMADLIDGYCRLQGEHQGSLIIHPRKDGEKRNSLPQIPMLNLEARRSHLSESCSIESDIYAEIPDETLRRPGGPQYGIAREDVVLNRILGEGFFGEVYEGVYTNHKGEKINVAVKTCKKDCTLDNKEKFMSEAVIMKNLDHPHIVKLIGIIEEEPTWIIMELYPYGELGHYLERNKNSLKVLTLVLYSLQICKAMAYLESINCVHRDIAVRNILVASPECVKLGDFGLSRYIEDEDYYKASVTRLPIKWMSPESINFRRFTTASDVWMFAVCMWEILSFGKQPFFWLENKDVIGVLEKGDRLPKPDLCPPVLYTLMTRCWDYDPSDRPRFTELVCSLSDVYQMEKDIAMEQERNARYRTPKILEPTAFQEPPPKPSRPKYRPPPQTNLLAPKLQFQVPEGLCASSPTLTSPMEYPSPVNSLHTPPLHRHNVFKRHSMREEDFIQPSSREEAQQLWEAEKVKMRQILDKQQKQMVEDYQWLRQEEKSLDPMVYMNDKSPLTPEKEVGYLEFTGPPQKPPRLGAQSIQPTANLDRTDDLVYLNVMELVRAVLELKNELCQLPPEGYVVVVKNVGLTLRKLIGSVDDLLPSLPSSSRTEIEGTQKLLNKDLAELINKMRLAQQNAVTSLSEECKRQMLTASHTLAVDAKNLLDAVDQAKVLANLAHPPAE
Sequence of JNK3(h) (P53779 whole entry): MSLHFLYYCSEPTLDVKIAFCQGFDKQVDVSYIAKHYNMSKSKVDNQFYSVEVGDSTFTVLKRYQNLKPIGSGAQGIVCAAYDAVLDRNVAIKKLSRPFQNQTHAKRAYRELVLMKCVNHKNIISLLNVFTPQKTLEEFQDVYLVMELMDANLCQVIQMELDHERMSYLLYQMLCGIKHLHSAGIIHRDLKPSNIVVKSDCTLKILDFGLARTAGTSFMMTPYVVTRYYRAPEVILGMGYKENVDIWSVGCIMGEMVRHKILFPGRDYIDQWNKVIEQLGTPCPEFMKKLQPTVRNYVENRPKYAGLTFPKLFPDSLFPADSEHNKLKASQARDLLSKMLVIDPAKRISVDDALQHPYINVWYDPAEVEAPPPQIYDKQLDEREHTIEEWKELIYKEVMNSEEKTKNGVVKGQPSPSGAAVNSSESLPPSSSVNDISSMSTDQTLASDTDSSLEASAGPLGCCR
Sequence of ROCK-I(h) (Q13464 17-535 limits assumed): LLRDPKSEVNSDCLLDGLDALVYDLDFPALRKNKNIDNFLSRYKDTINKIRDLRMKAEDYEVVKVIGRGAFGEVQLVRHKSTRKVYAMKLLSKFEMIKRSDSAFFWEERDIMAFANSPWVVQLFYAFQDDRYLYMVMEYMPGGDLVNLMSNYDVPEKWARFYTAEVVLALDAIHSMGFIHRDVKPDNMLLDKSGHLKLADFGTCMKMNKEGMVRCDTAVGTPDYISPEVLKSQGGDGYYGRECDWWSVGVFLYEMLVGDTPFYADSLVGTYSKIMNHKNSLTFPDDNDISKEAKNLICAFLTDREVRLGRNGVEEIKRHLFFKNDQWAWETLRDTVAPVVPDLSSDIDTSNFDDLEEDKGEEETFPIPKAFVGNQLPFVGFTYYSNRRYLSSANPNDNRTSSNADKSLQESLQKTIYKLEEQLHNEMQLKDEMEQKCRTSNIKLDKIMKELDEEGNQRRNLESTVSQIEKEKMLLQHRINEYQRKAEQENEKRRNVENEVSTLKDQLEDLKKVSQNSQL

Binder	% activity, 100 µM (FGFR1(h)) [%]	% activity, 100 µM (TAK1(h)) [%]	% activity, 100 µM (IR(h)) [%]	% activity, 100 µM (Flt4(h)) [%]	% activity, 100 µM (JNK3(h)) [%]	% activity, 100 µM (Pyk2 (h)) [%]	% activity, 100 µM (MST2(h)) [%]	% activity, 100 µM (ULK2(h)) [%]	% activity, 100 µM (BTK(R28H)(h)) [%]	% activity, 100 µM (ROCK-I(h)) [%]	% activity, 100 µM (MuSK(h)) [%]	% activity, 100 µM (DYRK2(h)) [%]
KAFAKLAARLYRKALARQLGVAA [MMI-0400]	59	177	85	89	70	34	11	131	24	73	93	195
FAKLAARLYRKALARQLGVAA [MMI-0300]	55	122	96	83	89	47	19	122	74	79	93	155
